Series [1] has as its target T1, CYP1A2 (Oryctolagus cuniculus, UniProt P00187).
T1 chain: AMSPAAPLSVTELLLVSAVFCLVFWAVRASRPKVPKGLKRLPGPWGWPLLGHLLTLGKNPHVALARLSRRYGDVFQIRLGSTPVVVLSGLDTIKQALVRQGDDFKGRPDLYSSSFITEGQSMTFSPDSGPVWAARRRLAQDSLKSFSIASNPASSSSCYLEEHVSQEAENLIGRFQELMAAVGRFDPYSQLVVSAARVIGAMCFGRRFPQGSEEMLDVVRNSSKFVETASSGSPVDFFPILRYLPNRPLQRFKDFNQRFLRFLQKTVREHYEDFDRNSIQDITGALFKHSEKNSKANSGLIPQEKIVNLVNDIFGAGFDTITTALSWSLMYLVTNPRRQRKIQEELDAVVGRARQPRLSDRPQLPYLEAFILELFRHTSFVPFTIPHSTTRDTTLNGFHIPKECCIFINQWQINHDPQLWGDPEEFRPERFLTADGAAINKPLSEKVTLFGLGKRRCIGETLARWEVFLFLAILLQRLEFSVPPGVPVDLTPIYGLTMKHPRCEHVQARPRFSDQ
Kind of series: enzyme activity titration.

Series [2] concerns the molecule itself. The experiment in a line: cross-linking.

Here are results for two molecules from PMC3518449 (The Biochemical journal, 2012).

Values joined by “and” are separate entries in the source; they are usually repeats but may differ in a detail not shown here. Equal entries are not always repeated.

B1: POR (protein)
chain: MADSHGDTGATMPEAAAQEASVFSMTDVVLFSLIVGLITYWFLFRKKKEEVPEFTKIQAPTSSSVKESSFVEKMKKTGRNIVVFYGSQTGTAEEFANRLSKDAHRYGMRGMAADPEEYDLADLSSLPEINNALAVFCMATYGEGDPTDNAQDFYDWLQETDVDLSGVKYAVFGLGNKTYEHFNAMGKYVDQRLEQLGAQRIFELGMGDDDANLEEDFITWREQFWPAVCEHFGVEATGEESSIRQYELVLHTDIDVAKVYQGEMGRLKSYENQKPPFDAKNPFLATVTTNRKLNQGTERHLMHLELDISDSKIRYESGDHVAVYPANDSALVNQLGEILGADLDVVMSLNNLDEESNKKHPFPCPTSYRTALTYYLDITNPPRTNVLYELAQYAADPAEQEQLRKMASSSGEGKELYLSWVVEARRHILAILQDYPSLRPPIDHLCELLPRLQARYYSIASSSKVHPNSVHICAVAVEYETKAGRLNKGVATSWLRAKEPAGENGGRALVPMFVRKSQFRLPFKATTPVIMVGPGTGVAPFIGFIQERAWLRQQGKEVGETLLYYGCRRAAEDYLYREELAGFQKDGTLSQLNVAFSREQAQKVYVQHLLRRDKEHLWRLIHEGGAHIYVCGDARNMARDVQNTFYDIVAELGAMEHAQAVDYVKKLMTKGRYSLDVWS
For the molecule B1, the dissociation constant Kd in series [1] turned out to be 12 nM.

B2: Cytochrome P450 1A2 (CYP1A2), isolated from rabbit liver microsomes (enzyme, UniProt P00187 1-516, looked up)
chain: MAMSPAAPLSVTELLLVSAVFCLVFWAVRASRPKVPKGLKRLPGPWGWPLLGHLLTLGKNPHVALARLSRRYGDVFQIRLGSTPVVVLSGLDTIKQALVRQGDDFKGRPDLYSSSFITEGQSMTFSPDSGPVWAARRRLAQDSLKSFSIASNPASSSSCYLEEHVSQEAENLIGRFQELMAAVGRFDPYSQLVVSAARVIGAMCFGRRFPQGSEEMLDVVRNSSKFVETASSGSPVDFFPILRYLPNRPLQRFKDFNQRFLRFLQKTVREHYEDFDRNSIQDITGALFKHSEKNSKANSGLIPQEKIVNLVNDIFGAGFDTITTALSWSLMYLVTNPRRQRKIQEELDAVVGRARQPRLSDRPQLPYLEAFILELFRHTSFVPFTIPHSTTRDTTLNGFHIPKECCIFINQWQINHDPQLWGDPEEFRPERFLTADGAAINKPLSEKVTLFGLGKRRCIGETLARWEVFLFLAILLQRLEFSVPPGVPVDLTPIYGLTMKHPRCEHVQARPRFSDQ
As for B2, in series [2], the “stoichiometry N” value is 2 and 4 and 5 and 6.

As a reminder, the Kd is the equilibrium constant for the complex coming apart. A higher Kd goes with a looser complex. The term stoichiometry N denotes a count of units in the complex or per binding partner.
